From FireProtDB (doi:10.1074/jbc.m112.408906)

B1: Myocilin, Q99972 (parent)
chain: MRFFCARCCSFGPEMPAVQLLLLACLVWDVGARTAQLRKANDQSGRCQYTFSVASPNESSCPEQSQAMSVIHNLQRDSSTQRLDLEATKARLSSLESLLHQLTLDQAARPQETQEGLQRELGTLRRERDQLETQTRELETAYSNLLRDKSVLEEEKKRLRQENENLARRLESSSQEVARLRRGQCPQTRDTARAVPPGSREVSTWNLDTLAFQELKSELTEVPASRILKESPSGYLRSGEGDTGCGELVWVGEPLTLRTAETITGKYGVWMRDPKPTYPYTQETTWRIDTVGTDVRQVFEYDLISQFMQGYPSKVHILPRPLESTGAVVYSGSLYFQGAESRTVIRYELNTETVKAEKEIPGAGYHGQFPYSWGGYTDIDLAVDEAGLWVIYSTDEAKGAIVLSKLNPENLELEQTWETNIRKQSVANAFIICGTLYTVSSYTSADATVNFAYDTGTGISKTLTIPFKNRYKYSSMIDYNPLEKKLFAWDNLNMVTYDIKLSKM

Variants of: B1
Conditions: Homo sapiens, pH 6, Thermal, CD, Sodium acetate 10mM, reversible: no, structure 4WXQ, whole UniProt chain shown

Variant: MRFFCARCCSFGPEMPAVQLLLLACLVWDVGARTAQLRKANDQSGRCQYTFSVASPNESSCPEQSQAMSVIHNLQRDSSTQRLDLEATKARLSSLESLLHQLTLDQAARPQETQEGLQRELGTLRRERDQLETQTRELETAYSNLLRDKSVLEEEKKRLRQENENLARRLESSSQEVARLRRGQCPQTRDTARAVPPGSREVSTWNLDTLAFQELKSELTEVPASRILKESPSGYLRSGEGDTGCGELVWVGEPLTLRTAETITGKYGVWMRDPKPTYPYTQETTWRIDTVGTDVRQVFEYDLISQFMQGYPSKVHILPRPLESTGAVVYSGSLYFQGAESRTVIRYELNTETVKAEKEIPGAGYHGQFPYSWGGYTDIDLAVDEAGLWVIYSTDEAKGAIVLSKLNPENLELEQTWETNIRKQSVTNAFIICGTLYTVSSYTSADATVNFAYDTGTGISKTLTIPFKNRYKYSSMIDYNPLEKKLFAWDNLNMVTYDIKLSKM [A427T]
- Tm (CaCl2 1mM): 48.3 °C
- change of melting temperature, mutant - wild type (higher = more stable) (CaCl2 1mM): -4.7 °C
- Tm (CaCl2 10mM): 55.2 °C
- change of melting temperature, mutant - wild type (higher = more stable) (CaCl2 10mM): -4.4 °C

Variant: MRFFCARCCSFGPEMPAVQLLLLACLVWDVGARTAQLRKANDQSGRCQYTFSVASPNESSCPEQSQAMSVIHNLQRDSSTQRLDLEATKARLSSLESLLHQLTLDQAARPQETQEGLQRELGTLRRERDQLETQTRELETAYSNLLRDKSVLEEEKKRLRQENENLARRLESSSQEVARLRRGQCPQTRDTARAVPPGSREVSTWNLDTLAFQELKSELTEVPASRILKESPSGYLRSGEGDTGCGELVWVGEPLTLRTAETITGKYGVWMRDPKPTYPYTQETTWRIDTVGTDVRQVFEYDLISQFMQGYPSKVHILPRPLESTGAVVYSGSLYFQGAESRTVIRYELNTETVKAEKEIPGAGYHGQFPYSWGGYTDIDLAVDEAGLWVIYSTDEAKGAIVLSKLNPENLELEQTWETNIREQSVANAFIICGTLYTVSSYTSADATVNFAYDTGTGISKTLTIPFKNRYKYSSMIDYNPLEKKLFAWDNLNMVTYDIKLSKM [K423E]
- Tm (CaCl2 1mM): 34.2 °C
- change of melting temperature, mutant - wild type (higher = more stable) (CaCl2 1mM): -18.8 °C
- Tm (CaCl2 10mM): 43.2 °C
- change of melting temperature, mutant - wild type (higher = more stable) (CaCl2 10mM): -16.4 °C

Variant: MRFFCARCCSFGPEMPAVQLLLLACLVWDVGARTAQLRKANDQSGRCQYTFSVASPNESSCPEQSQAMSVIHNLQRDSSTQRLDLEATKARLSSLESLLHQLTLDQAARPQETQEGLQRELGTLRRERDQLETQTRELETAYSNLLRDKSVLEEEKKRLRQENENLARRLESSSQEVARLRRGQCPQTRDTARAVPPGSREVSTWNLDTLAFQELKSELTEVPASRILKESPSGYLRSGEGDTGCGELVWVGEPLTLRTAETITGKYGVWMRDPKPTYPYTQETTWRIDTVGTDVRQVFEYDLISQFMQGYPSKVHILPRPLESTGAVVYSGSLYFQGAESRTVIRYELNTETVKAEKEIPGAGYHGQFPYSWGGYTDIDLAVAEAGLWVIYSTDEAKGAIVLSKLNPENLELEQTWETNIRKQSVANAFIICGTLYTVSSYTSADATVNFAYDTGTGISKTLTIPFKNRYKYSSMIDYNPLEKKLFAWDNLNMVTYDIKLSKM [D384A]
- Tm (CaCl2 1mM): 42.5 °C
- change of melting temperature, mutant - wild type (higher = more stable) (CaCl2 1mM): -10.5 °C

Variant: MRFFCARCCSFGPEMPAVQLLLLACLVWDVGARTAQLRKANDQSGRCQYTFSVASPNESSCPEQSQAMSVIHNLQRDSSTQRLDLEATKARLSSLESLLHQLTLDQAARPQETQEGLQRELGTLRRERDQLETQTRELETAYSNLLRDKSVLEEEKKRLRQENENLARRLESSSQEVARLRRGQCPQTRDTARAVPPGSREVSTWNLDTLAFQELKSELTEVPASRILKESPSGYLRSGEGDTGCGELVWVGEPLTLRTAETITGKYGVWMRDPKPTYPYTQETTWRIDTVGTDVRQVFEYDLISQFMQGYPSKVHILPRPLESTGAVVYSGSLYFQGAESRTVIRYELNTETVKAEKEIPGAGYHGQFPYSWGGYTDIDLAVDEAGLWVIYSTDEAKGAIVLSKLNPENLELEQTWETNIRKQSVANAFIICGTLHTVSSYTSADATVNFAYDTGTGISKTLTIPFKNRYKYSSMIDYNPLEKKLFAWDNLNMVTYDIKLSKM [Y437H]
- Tm (CaCl2 1mM): 40.3 °C
- change of melting temperature, mutant - wild type (higher = more stable) (CaCl2 1mM): -12.7 °C
- Tm (CaCl2 10mM): 48.6 °C
- change of melting temperature, mutant - wild type (higher = more stable) (CaCl2 10mM): -11 °C

Variant: MRFFCARCCSFGPEMPAVQLLLLACLVWDVGARTAQLRKANDQSGRCQYTFSVASPNESSCPEQSQAMSVIHNLQRDSSTQRLDLEATKARLSSLESLLHQLTLDQAARPQETQEGLQRELGTLRRERDQLETQTRELETAYSNLLRDKSVLEEEKKRLRQENENLARRLESSSQEVARLRRGQCPQTRDTARAVPPGSREVSTWNLDTLAFQELKSELTEVPASRILKESPSGYLRSGEGDTGCGELVWVGEPLTLRTAETITGKYGVWMRDPKPTYPYTQETTWRIDTVGTDVRQVFEYDLISQFMQGYPSKVHILPRPLESTGAVVYSGSLYFQGAESRTVIRYELNTETVKAEKEIPGAGYHGQFPYSWGGYTDIDLAVDEAGLWVIYSTDEAKGAIVLSKLNPENLELEQTWETNIRKQSFANAFIICGTLYTVSSYTSADATVNFAYDTGTGISKTLTIPFKNRYKYSSMIDYNPLEKKLFAWDNLNMVTYDIKLSKM [V426F]
- Tm (CaCl2 1mM): 41.5 °C
- change of melting temperature, mutant - wild type (higher = more stable) (CaCl2 1mM): -11.5 °C
- Tm (CaCl2 10mM): 49.9 °C
- change of melting temperature, mutant - wild type (higher = more stable) (CaCl2 10mM): -9.7 °C

Variant: MRFFCARCCSFGPEMPAVQLLLLACLVWDVGARTAQLRKANDQSGRCQYTFSVASPNESSCPEQSQAMSVIHNLQRDSSTQRLDLEATKARLSSLESLLHQLTLDQAARPQETQEGLQRELGTLRRERDQLETQTRELETAYSNLLRDKSVLEEEKKRLRQENENLARRLESSSQEVARLRRGQCPQTRDTARAVPPGSREVSTWNLDTLAFQELKSELTEVPASRILKESPSGYLRSGEGDTGCGELVWVGEPLTLRTAETITGKYGVWMRDPKPTYPYTQETTWRIDTVGTDVRQVFEYDLISQFMQGYPSKVHILPRPLESTGAVVYSGSLYFQGAESRTVIRYELNTETVKAEKEIPGAGYHGQFPYSWGGYTDIDLAVDEAGLWVIYSTDEAKGAIVLSKLNPENLELEQTWETNIRKQSVANAFIIRGTLYTVSSYTSADATVNFAYDTGTGISKTLTIPFKNRYKYSSMIDYNPLEKKLFAWDNLNMVTYDIKLSKM [C433R]
- Tm (CaCl2 1mM): 40.4 °C
- change of melting temperature, mutant - wild type (higher = more stable) (CaCl2 1mM): -12.6 °C
- Tm (CaCl2 10mM): 49.4 °C
- change of melting temperature, mutant - wild type (higher = more stable) (CaCl2 10mM): -10.2 °C

Variant: MRFFCARCCSFGPEMPAVQLLLLACLVWDVGARTAQLRKANDQSGRCQYTFSVASPNESSCPEQSQAMSVIHNLQRDSSTQRLDLEATKARLSSLESLLHQLTLDQAARPQETQEGLQRELGTLRRERDQLETQTRELETAYSNLLRDKSVLEEEKKRLRQENENLARRLESSSQEVARLRRGQCPQTRDTARAVPPGSREVSTWNLDTLAFQELKSELTEVPASRILKESPSGYLRSGEGDTGCGELVWVGEPLTLRTAETITGKYGVWMRDPKPTYPYTQETTWRIDTVGTDVRQVFEYDLISQFMQGYPSKVHILPRPLESTGAVVYSGSLYFQGAESRTVIRYELNTETVKAEKEIPGAGYHGQFPYSWGGYTDIDLAVDAAGLWVIYSTDEAKGAIVLSKLNPENLELEQTWETNIRKQSVANAFIICGTLYTVSSYTSADATVNFAYDTGTGISKTLTIPFKNRYKYSSMIDYNPLEKKLFAWDNLNMVTYDIKLSKM [E385A]
- Tm (CaCl2 1mM): 39.7 °C
- change of melting temperature, mutant - wild type (higher = more stable) (CaCl2 1mM): -13.3 °C
- Tm (CaCl2 10mM): 49.7 °C
- change of melting temperature, mutant - wild type (higher = more stable) (CaCl2 10mM): -9.9 °C
